The assay deals with Nb.d4C4-1. The experiment in a line: SPR.

Here are results for two molecules from patent US20250163146A1 (published 2025).

B1: mDll4(N-EGF3) (ligand)
chain: GSGIFQLRLQEFVNQRGMLANGQSCEPGCRTFFRICLKHFQATFSEGPCTFGNVSTPVLGTNSFVVRDKNSGSGRNPLQLPFNFTWPGTFSLNIQAWHTPGDDLRPETSPGNSLISQIIIQGSLAVGKIWRTDEQNDTLTRLSYSYRVICSDNYYGESCSRLCKKRDDHFGHYECQPDGSLSCLPGWTGKYCDQPICLSGCHEQNGYCSKPDECICRPGWQGRLCNECIPHNGCRHGTCSIPWQCACDEGWGGLFCDQDLNYCTHHSPCKNGSTCSNSGPKGYTCTCLPGYTGEHCEL
modifications: biotinylated (site not stated)
As to B1, the Kd was 1.63 nM. This lies in the single-digit nanomolar range.

B2: hDLL4(N-EGF5) (ligand)
chain: SGVFQLQLQEFINERGVLASGRPCEPGCRTFFRVCLKHFQAVVSPGPCTFGTVSTPVLGTNSFAVRDDSSGGGRNPLQLPFNFTWPGTFSLIIEAWHAPGDDLRPEALPPDALISKIAIQGSLAVGQNWLLDEQTSTLTRLRYSYRVICSDNYYGDNCSRLCKKRNDHFGHYVCQPDGNLSCLPGWTGEYCQQPICLSGCHEQNGYCSKPAECLCRPGWQGRLCNECIPHNGCRHGTCSTPWQCTCDEGWGGLFCDQDLNYCTHHSPCKNGATCSNSGQRSYTCTCRPGYTGVDCELELSECDSNPCRNGGSCKDQEDGYHCLCPPGYYGLHCEHSTLSCADSPCFNGGSCRERNQGANYACECPPNFTGSNCEK
modifications: biotinylated in the flow cytometry titration (site not stated); not stated for the plate-coated protein
With B2, the affinity, expressed as Kd, was 1.43 nM.
